The MegaScale stability set (Tsuboyama et al. 2023)

B1: 2M8U (parent)
chain: TKAQVIEAFKVFDRDGNGYVTVDYLRKVLNELGDMMPADEIEEMIYEADPQNSGYVQYETFVGMLFL

Variants of: B1
Assay: folding stability dG (cDNA display proteolysis); higher = more stable
Conditions: PBS, room temperature

Folding stability dG [kcal/mol], by site and new letter:
A38: T 3.6 | N 3.45 | S 3.56 | L 3.59 | R 3.62 | D 3.32 | Q 3.69 | P 3.47 | V 3.61 | F 3.53 | G 3.41 | K 3.69 | M 3.76 | C 3.52 | Y 3.5 | W 4 | I 3.69 | H 3.57 | E 3.43
M36: H 3.99 | E 2.77 | L 3.72 | Q 3.19 | N 3.34 | D 2.72 | V 3.81 | A 3.8 | I 3.75 | C 3.44 | Y 3.57 | R 3.6 | S 3.41 | G 3.48 | T 3.65 | K 3.66 | P 3.63 | W 4.42 | F 4.23
P37: M 3.3 | E 3.34 | T 3.32 | R 3.45 | S 3.33 | A 3.1 | N 3.6 | L 3.45 | Y 3.44 | H 3.46 | V 3.34 | I 3.41 | K 3.7 | D 3.26 | C 3.49 | F 3.57 | W 3.79 | G 3.36 | Q 3.43
L32: P 1.83 | T 2.55 | W 3.33 | Q 2.62 | N 2.53 | S 2.56 | Y 3.28 | R 2.6 | V 3.26 | M 3.21
A48: Y 3.48 | E 2.78 | C 3.84 | D 2.1 | N 3.44 | I 3.33 | W 3.34 | R 2.9 | P 2.25 | F 3.44 | Q 3.37 | H 3.68 | V 3.28 | M 3.28 | G 2.64 | K 2.63 | L 3.45 | T 3.33 | S 3.53
D49: P 2.15 | M 2.71 | Q 2.53 | F 2.43 | V 2.58 | Y 2.67 | C 2.7 | T 2.83 | R 2.21 | H 2.3 | E 2.25 | L 2.43 | G 2.36 | N 2.75 | W 2.66 | A 2.62 | K 2.14 | I 2.49 | S 2.93
E40: P 3.22 | Y 4.06 | R 3.96 | T 3.78 | H 4.01 | S 3.7 | I 3.91 | W 3.75 | N 4.09 | F 3.99 | C 3.85 | V 3.74 | A 3.65 | K 3.91 | M 3.66 | Q 3.64 | L 3.89 | D 3.69 | G 4.01
G33: K 3.46 | V 3.83 | C 3.87 | I 4.07 | P 3.54 | M 4.14 | R 3.51 | D 3.25 | Q 3.37 | H 3.25 | E 3.48 | Y 3.48 | N 3.18 | L 3.89 | A 3.79 | F 3.94 | W 3.55 | T 3.81 | S 3.28
Y46: A 3.52 | E 3.36 | L 3.44 | F 3.55 | S 3.52 | M 3.58 | C 3.46 | R 3.66 | I 3.47 | N 3.57 | H 3.62 | P 2.82 | K 3.64 | W 3.56 | D 3.29 | Q 3.66 | T 3.62 | V 3.5 | G 3.44
I41: P 1.98 | N 2.17 | T 2.72 | Q 2.78 | H 2.52 | L 3.83 | K 2.59 | E 2.29 | V 3.4 | G 2.29 | D 1.96 | F 3.5 | R 3.03 | M 3.57 | S 2.59 | Y 3.35 | C 2.87 | A 2.86 | W 3.72
I45: A 2.37 | E 2.15 | N 2.17 | C 2.67 | L 3.19 | R 2.06 | T 2.13 | M 2.88 | W 2.6 | S 2.16 | Q 1.91 | D 2.39 | K 2.41 | G 2.2 | V 3 | F 2.61 | Y 2.5 | H 2.08 | P 1.88
M35: F 3.9 | R 3.02 | L 3.68 | H 3.01 | Y 3.33 | D 2.96 | W 3.6 | A 3.09 | E 2.98 | C 3.25 | P 3.12 | V 3.38 | K 3.16 | G 2.95 | N 2.96 | T 3.14 | I 3.69 | Q 3.09 | S 3.07
E42: D 3.37 | Q 3.37 | R 3.14 | T 3.41 | I 3.25 | K 3.22 | P 2.64 | F 3.06 | L 3.16 | S 3.29 | C 3.11 | N 3.49 | M 3.3 | G 3.04 | Y 2.97 | H 3.01 | A 3.26 | W 3.1 | V 3.01
M44: G 2.53 | Y 3.21 | R 3.66 | K 3.56 | N 2.88 | W 3.21 | E 2.18 | I 3.05 | T 2.97 | F 3.09 | S 2.96 | L 3.65 | D 2.25 | A 3.48 | P 1.8 | C 3.6 | Q 2.95 | H 3.52 | V 3.07
P50: A 3.3
D34: P 3.89 | T 3.51 | R 3.51 | S 3.32 | H 3.53 | I 4.72 | G 3.42 | E 3.77 | V 4.2 | N 3.58 | F 4.68 | Q 3.79 | K 3.43 | A 3.54 | C 4.32 | Y 4.42 | M 4.24 | L 4.44 | W 4.49
D39: V 4.01 | I 3.83 | H 3.71 | K 3.79 | Q 3.59 | Y 3.86 | R 3.75 | G 3.77 | S 3.52 | M 3.92 | F 4.09 | A 3.7 | L 3.89 | W 3.65 | P 3.68 | C 3.74 | N 3.68 | T 3.66 | E 3.59
E43: A 3.81 | S 3.74 | F 3.8 | Y 3.69 | K 3.75 | T 3.73 | C 3.74 | L 3.73 | W 3.87 | D 3.6 | R 4.37 | G 3.58 | P 3.54 | Q 3.9 | H 4.05 | M 3.82 | I 3.87 | N 3.64 | V 3.78
E47: W 3.76 | Q 3.96 | K 4.09 | V 3.85 | P 2.33 | M 3.87 | L 3.88 | Y 3.51 | D 3.49 | R 4.15 | A 3.76 | I 3.92 | S 3.71 | G 3.5 | C 3.66 | H 3.8 | F 3.75 | N 3.52 | T 3.73
